# Experimental data: IntAct's records for PubMed 17451412
# Tests used:
# wasl_rat Wasl = wasl_rat Wasl (UniProt O08816)
# tir_eco57 tir = tir_eco57 tir (UniProt Q7DB77)
# Chain of tir_eco57 tir (Q7DB77 whole entry): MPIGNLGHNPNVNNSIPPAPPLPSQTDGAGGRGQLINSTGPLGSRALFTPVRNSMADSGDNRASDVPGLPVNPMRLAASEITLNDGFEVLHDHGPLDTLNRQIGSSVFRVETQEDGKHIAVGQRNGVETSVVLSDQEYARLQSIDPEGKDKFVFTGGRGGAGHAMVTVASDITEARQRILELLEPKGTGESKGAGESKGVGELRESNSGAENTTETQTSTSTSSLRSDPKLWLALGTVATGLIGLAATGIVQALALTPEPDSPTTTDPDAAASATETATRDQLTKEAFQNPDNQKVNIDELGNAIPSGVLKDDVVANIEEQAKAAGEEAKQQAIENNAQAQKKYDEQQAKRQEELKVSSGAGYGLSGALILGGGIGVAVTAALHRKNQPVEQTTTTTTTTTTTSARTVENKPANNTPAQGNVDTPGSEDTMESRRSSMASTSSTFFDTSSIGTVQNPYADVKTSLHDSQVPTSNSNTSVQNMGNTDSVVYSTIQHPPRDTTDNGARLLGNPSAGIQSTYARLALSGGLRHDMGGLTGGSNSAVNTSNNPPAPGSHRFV
# Chain of wasl_rat Wasl (O08816 whole entry): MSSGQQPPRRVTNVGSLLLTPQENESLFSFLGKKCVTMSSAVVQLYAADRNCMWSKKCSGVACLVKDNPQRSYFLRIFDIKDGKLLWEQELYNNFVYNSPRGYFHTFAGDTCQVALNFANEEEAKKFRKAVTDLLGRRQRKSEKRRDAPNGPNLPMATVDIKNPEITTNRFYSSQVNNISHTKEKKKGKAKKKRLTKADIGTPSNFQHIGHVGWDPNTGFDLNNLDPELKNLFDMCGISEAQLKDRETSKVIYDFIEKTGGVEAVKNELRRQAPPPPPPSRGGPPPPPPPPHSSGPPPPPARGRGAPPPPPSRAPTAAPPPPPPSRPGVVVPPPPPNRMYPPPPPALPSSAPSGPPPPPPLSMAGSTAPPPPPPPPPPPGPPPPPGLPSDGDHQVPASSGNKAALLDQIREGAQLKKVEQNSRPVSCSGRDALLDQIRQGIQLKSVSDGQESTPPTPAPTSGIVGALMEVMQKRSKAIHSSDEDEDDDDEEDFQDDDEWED
# Chain of Src substrate cortactin (Mus musculus), Q60598 Y421D;Y466D (Q60598 whole entry Y421D/Y466D): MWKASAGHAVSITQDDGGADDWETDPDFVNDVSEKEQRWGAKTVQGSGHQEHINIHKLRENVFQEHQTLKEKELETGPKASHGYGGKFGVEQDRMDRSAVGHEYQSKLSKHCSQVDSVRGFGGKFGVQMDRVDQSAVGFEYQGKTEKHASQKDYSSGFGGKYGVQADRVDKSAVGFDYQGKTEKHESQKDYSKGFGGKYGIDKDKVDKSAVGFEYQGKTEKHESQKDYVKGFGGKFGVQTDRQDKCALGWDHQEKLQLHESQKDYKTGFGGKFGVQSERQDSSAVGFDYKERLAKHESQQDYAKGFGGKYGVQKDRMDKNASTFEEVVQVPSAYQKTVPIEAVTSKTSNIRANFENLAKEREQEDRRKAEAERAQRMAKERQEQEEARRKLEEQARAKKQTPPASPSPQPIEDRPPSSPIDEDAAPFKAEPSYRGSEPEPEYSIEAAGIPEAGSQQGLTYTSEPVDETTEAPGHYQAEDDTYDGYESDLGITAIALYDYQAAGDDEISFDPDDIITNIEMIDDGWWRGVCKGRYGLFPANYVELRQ
# Chain of Src substrate cortactin (Mus musculus), Q60598 S405D;S418D (Q60598 whole entry S405D/S418D): as the sequence (Q60598 whole entry Y421D/Y466D) above, with S405D, S418D, D421Y, D466Y counted along it
# Chain of Src substrate cortactin (Mus musculus), Q60598 W525K (Q60598 whole entry W525K): as the sequence (Q60598 whole entry Y421D/Y466D) above, with D421Y, D466Y, W525K counted along it
Substance,effect of a mutation on the interaction (wasl_rat Wasl),effect of a mutation on the interaction (tir_eco57 tir)
"Src substrate cortactin (Mus musculus), Q60598 Y421D;Y466D",increasing interaction,increasing interaction
"Src substrate cortactin (Mus musculus), Q60598 S405D;S418D",disrupting interaction,with no effect
"Src substrate cortactin (Mus musculus), Q60598 W525K",with no effect,–
